According to the RNAGym collection of RNA variant scans (doi:10.7554/elife.80360):

B1: Hairpin Ribozyme (parent)
chain: GUCCUCUUUCACGUGCGCGUGAAAGAGAGAAGUGAACCAGAGAAACACACGUUGUGGUAUAUUACCUGGUA

Variants of: B1
Test: self-cleavage, relative activity (ratio to wild type); higher = more cleavage; co-transcriptional

Q: Which self-cleavage does the source give for GUCCUCUUUCACGUGCGCGUCAAAGAGAGAAGUGAACCAGAGAAACACACGUUCUGGUAUAUUACCUGGUA here?
A: 0.305

Q: For GUCCUCUUUCACGUGCGCGUCAAAGAGAGAAGUGAACCAGAGAAACACACGUUGUGGUAUAUUAUCUGGUA, which self-cleavage is on record?
A: 0.304

Q: For GUCCUCUUUCACGUGCGCGUCAAAGAGAGAAGUGAACCAGAGAAACACACGUUGUGGUAUAUUAGCUGGUA, which self-cleavage is on record?
A: 0.249

Q: With GUCCUCUUUCACGUGCGCGUAAAAGAGAGAAGUGAACCAGAGAAACACACGUUGGGGUAUAUUACCUGGUA as the variant, how does the self-cleavage read?
A: 0.271

Q: For GUCCUCUUUCACGUGCGCGUAAAAGAGAGAAGUGAACCAGAGAAACACACGUUGCGGUAUAUUACCUGGUA, which self-cleavage is on record?
A: 0.242

Q: Which self-cleavage does the source give for GUCCUCUUUCACGUGCGCGUCAAAGAGGGAAGUGAACCAGAGAAACACACGUUGUGGUAUAUUACCUGGUA here?
A: 0.852

Q: For GUCCUCUUUCACGUGCGCGUCAAAGAGCGAAGUGAACCAGAGAAACACACGUUGUGGUAUAUUACCUGGUA, which self-cleavage is on record?
A: 0.412

Q: With GUCCUCUUUCACGUGCGCGUCAAAGAGAAAAGUGAACCAGAGAAACACACGUUGUGGUAUAUUACCUGGUA as the variant, how does the self-cleavage read?
A: 0.0976

Q: With GUCCUCUUUCACGUGCGCGUCAAAGAGACAAGUGAACCAGAGAAACACACGUUGUGGUAUAUUACCUGGUA as the variant, how does the self-cleavage read?
A: 0.119

Q: Which self-cleavage does the source give for GUCCUCUUUCACGUGCGCGUCAGAGAGAGAAGUGAACCAGAGAAACACACGUUGUGGUAUAUUACCUGGUA here?
A: 0.77

Q: With GUCCUCUUUCACGUGCGCGUCGAAGAGAGAAGUGAACCAGAGAAACACACGUUGUGGUAUAUUACCUGGUA as the variant, how does the self-cleavage read?
A: 0.786

Q: With GUCCUCUUUCACGUGCGCGUCAAAGAGAGAAGUGAACGAGAGAAACACACGUUGUGGUAUAUUACCUGGUA as the variant, how does the self-cleavage read?
A: 0.154

Q: For GUCCUCUUUCACGUGCGCGUAAAAGAGAGAAGUGAACCAGAGAAACACACGUUGUGGUAUAUUACCUUGUA, which self-cleavage is on record?
A: 0.165

Q: With GUCCUCUUUCACGUGCGCGUCAAAGAGAGAAGUGAACCAGAGAAACGCACGUUGUGGUAUAUUACCUGGUA as the variant, how does the self-cleavage read?
A: 0.157

Q: For GUCCUCUUUCACGUGCGCGUCAAAGAGAGAAGUGAACCAGAGAAACACACGUUGUGGUAUAAUACCUGGUA, which self-cleavage is on record?
A: 0.206

Q: Which self-cleavage does the source give for GUCCUCUUUCACGUGCGCGUCAAAGAGAGAAGUGAACCAGAGAAACACACGUUGUGGUAUACUACCUGGUA here?
A: 0.334

Q: With GUCCUCUUUCACGUGCGCGUAAAAGAGAGAAGUGAACCAGAGAAACACACGUUGUGGUAGAUUACCUGGUA as the variant, how does the self-cleavage read?
A: 0.533

Q: For GUCCUCUUUCACGUGCGCGUCAAAGAGAGAAGUGAACCAGAAAAACACACGUUGUGGUAUAUUACCUGGUA, which self-cleavage is on record?
A: 0.216

Q: For GUCCUCUUUCACGUGCGCGUCAAAGAGAGAAGUGAACCAGACAAACACACGUUGUGGUAUAUUACCUGGUA, which self-cleavage is on record?
A: 0.195

Q: Which self-cleavage does the source give for GUCCUCUUUCACGUGCGCGUAAAAGAGAGAAGUGAACCAGAGAAACACACGUUGUGGUAUAUUACCAGGUA here?
A: 0.23

Q: Which self-cleavage does the source give for GUCCUCUUUCACGUGCGCGUAAAAGAGAGAAGUGAACCAGAGAAACACACGUUGUGGUAUAUUACCCGGUA here?
A: 0.248

Q: With GUCCUCUUUCACGUGCGCGUCAAUGAGAGAAGUGAACCAGAGAAACACACGUUGUGGUAUAUUACCUGGUA as the variant, how does the self-cleavage read?
A: 0.585

Q: With GUCCUCUUUCACGUGCGCGUAAAAGAGAGAAGUGAACCAGAGAAACACACGAUGUGGUAUAUUACCUGGUA as the variant, how does the self-cleavage read?
A: 0.78

Q: For GUCCUCUUUCACGUGCGCGUCAAAGAGAGAAGUGAACCAGAGAAACACACGGUGUGGUAUAUUACCUGGUA, which self-cleavage is on record?
A: 0.654

Q: For GUCCUCUUUCACGUGCGCGUAAAAGAGAGAAGAGAACCAGAGAAACACACGUUGUGGUAUAUUACCUGGUA, which self-cleavage is on record?
A: 0.151

Q: For GUCCUCUUUCACGUGCGCGUCAAAGAGAGAAGUGAACCAGAGAAACACACGUGGUGGUAUAUUACCUGGUA, which self-cleavage is on record?
A: 0.58

Q: For GUCCUCUUUCACGUGCGCGUCAAAGAGAGAAGUGAACCAGAGAAACACACGUUGCGGUAUAUUACCUGGUA, which self-cleavage is on record?
A: 0.204

Q: Which self-cleavage does the source give for GUCCUCUUUCACGUGCGCGUCAAAGAGAGAAGUGAACCAGAGAAACACACGUUGGGGUAUAUUACCUGGUA here?
A: 0.248

Q: Which self-cleavage does the source give for GUCCUCUUUCACGUGCGCGUCAAAGAGAGAAGUGAACCAGAGAAACACACGUUGAGGUAUAUUACCUGGUA here?
A: 0.165

Q: With GUCCUCUUUCACGUGCGCGUCAAAGAGAGAAGUGAACCAGAGAAACACACGUUGUGGUAUUUUACCUGGUA as the variant, how does the self-cleavage read?
A: 0.304

Q: For GUCCUCUUUCACGUGCGCGUCAAAGAGAGAAGUGAACCAGAGAAACACACGUUGUGGUAUGUUACCUGGUA, which self-cleavage is on record?
A: 0.104

Q: Which self-cleavage does the source give for GUCCUCUUUCACGUGCGCGUAAAAGAGAGAAGUGAACCAGAGAAACACACGUGGUGGUAUAUUACCUGGUA here?
A: 0.699

Q: Which self-cleavage does the source give for GUCCUCUUUCACGUGCGCGUAAAAGAGAGAAGUGAACCAGAGAAACACACGUUGUGGAAUAUUACCUGGUA here?
A: 0.533

Q: With GUCCUCUUUCACGUGCGCGUAAAAGAGAGAAGUGAACCAGAGAAACACACGUUGUGGCAUAUUACCUGGUA as the variant, how does the self-cleavage read?
A: 0.916

Q: With GUCCUCUUUCACGUGCGCGUCAAACAGAGAAGUGAACCAGAGAAACACACGUUGUGGUAUAUUACCUGGUA as the variant, how does the self-cleavage read?
A: 0.238

Q: For GUCCUCUUUCACGUGCGCGUUAAAGAGAGAUGUGAACCAGAGAAACACACGUUGUGGUAUAUUACCUGGUA, which self-cleavage is on record?
A: 0.0962

Q: Which self-cleavage does the source give for GUCCUCUUUCACGUGCGCGUCAAAGGGAGAAGUGAACCAGAGAAACACACGUUGUGGUAUAUUACCUGGUA here?
A: 0.528

Q: With GUCCUCUUUCACGUGCGCGUCAAAGAGAGAAGUGAACCAGAGAAACACACGUUGUGCUAUAUUACCUGGUA as the variant, how does the self-cleavage read?
A: 0.143
